How the values were obtained:
TCTP [1] = target: T1, TCTP (UniProt P13693 1-172); test: EMSA; 50 nM RNA, increasing TCTP; pH 7.5; EMSA: RNA01 at pH 7.5, 6% native PAGE at 4 C; let-7c-5p 50 nM, proteins preincubated 20 min then 25 min on ice, ATP or AMP-PNP (5 mM), NativePAGE 3-12% Bis-Tris; conditions: protein: recombinant; label: 5'-Cy5; single strand
T1 sequence: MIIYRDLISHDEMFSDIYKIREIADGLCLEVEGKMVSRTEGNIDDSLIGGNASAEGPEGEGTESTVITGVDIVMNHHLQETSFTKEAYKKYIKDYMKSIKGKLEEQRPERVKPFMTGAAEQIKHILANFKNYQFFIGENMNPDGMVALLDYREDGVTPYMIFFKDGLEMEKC

Ded1 (DEAD-box helicase) = Ded1 (DEAD-box helicase) (yeast, UniProt P06634 1-604); test: EMSA; 50 nM RNA; positive control; AMP-PNP; EMSA: RNA01 at pH 7.5, 6% native PAGE at 4 C; let-7c-5p 50 nM, proteins preincubated 20 min then 25 min on ice, ATP or AMP-PNP (5 mM), NativePAGE 3-12% Bis-Tris; conditions: protein: recombinant; label: 5'-Cy5; single strand
TCTP [2] = target: T1, TCTP; test: EMSA; 500 nM TCTP, 50 nM RNA; ATP or AMP-PNP; EMSA: RNA01 at pH 7.5, 6% native PAGE at 4 C; let-7c-5p 50 nM, proteins preincubated 20 min then 25 min on ice, ATP or AMP-PNP (5 mM), NativePAGE 3-12% Bis-Tris; conditions: protein: recombinant; single strand
DDX3-WT = DDX3-WT (human, UniProt O00571 1-662); test: EMSA; 300 nM DDX3, 50 nM RNA; ATP or AMP-PNP (nucleotide not specified for outcome); EMSA: RNA01 at pH 7.5, 6% native PAGE at 4 C; let-7c-5p 50 nM, proteins preincubated 20 min then 25 min on ice, ATP or AMP-PNP (5 mM), NativePAGE 3-12% Bis-Tris; conditions: protein: recombinant; single strand
DDX3-WT, sequence (O00571 whole entry): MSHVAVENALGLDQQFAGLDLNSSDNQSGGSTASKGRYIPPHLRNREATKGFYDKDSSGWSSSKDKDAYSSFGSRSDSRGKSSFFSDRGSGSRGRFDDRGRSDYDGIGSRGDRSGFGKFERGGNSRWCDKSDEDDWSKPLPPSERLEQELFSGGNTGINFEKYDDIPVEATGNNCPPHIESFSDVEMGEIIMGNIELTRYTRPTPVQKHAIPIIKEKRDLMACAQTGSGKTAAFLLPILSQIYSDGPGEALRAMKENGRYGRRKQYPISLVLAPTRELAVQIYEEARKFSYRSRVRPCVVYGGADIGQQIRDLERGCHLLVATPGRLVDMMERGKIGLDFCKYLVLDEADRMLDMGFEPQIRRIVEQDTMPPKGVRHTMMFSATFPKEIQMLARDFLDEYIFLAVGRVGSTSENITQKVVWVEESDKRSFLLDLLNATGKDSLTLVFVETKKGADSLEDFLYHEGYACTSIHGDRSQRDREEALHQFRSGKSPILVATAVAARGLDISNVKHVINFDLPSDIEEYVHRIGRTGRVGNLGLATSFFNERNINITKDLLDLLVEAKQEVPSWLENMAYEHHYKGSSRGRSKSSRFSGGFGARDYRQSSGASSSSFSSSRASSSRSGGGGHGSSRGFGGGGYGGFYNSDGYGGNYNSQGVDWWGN

Ded1 (DEAD-box helicase), sequence (P06634 whole entry): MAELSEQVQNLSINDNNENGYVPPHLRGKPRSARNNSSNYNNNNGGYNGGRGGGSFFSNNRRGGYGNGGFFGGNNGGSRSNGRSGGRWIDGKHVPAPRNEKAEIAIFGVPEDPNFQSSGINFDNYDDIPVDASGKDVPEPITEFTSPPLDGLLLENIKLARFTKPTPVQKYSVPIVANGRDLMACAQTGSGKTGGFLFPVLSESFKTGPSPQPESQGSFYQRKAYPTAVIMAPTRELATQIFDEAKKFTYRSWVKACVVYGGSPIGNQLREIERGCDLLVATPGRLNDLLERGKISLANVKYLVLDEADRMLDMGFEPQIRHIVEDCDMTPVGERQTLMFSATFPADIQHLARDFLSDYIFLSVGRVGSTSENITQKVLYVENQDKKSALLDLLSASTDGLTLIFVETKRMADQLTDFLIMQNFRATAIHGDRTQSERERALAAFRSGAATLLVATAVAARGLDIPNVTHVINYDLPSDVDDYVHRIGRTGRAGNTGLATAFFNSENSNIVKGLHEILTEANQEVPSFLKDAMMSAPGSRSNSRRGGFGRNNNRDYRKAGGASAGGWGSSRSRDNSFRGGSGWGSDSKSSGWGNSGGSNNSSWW

UCAUACUUUUCUUUUCUUUUCCAUC (ssRNA) [RNA01]
binding result (TCTP [1]): no binding | binding result (Ded1 (DEAD-box helicase)): binds

UGAGGUAGUAGGUUGUAUGGUU (ssRNA) [let-7c-5p]
binding result (TCTP [2]): no binding | binding result (DDX3-WT): binds

— article PMC11014985, “TCTP regulates genotoxic stress and tumorigenicity via intercellular vesicular signaling”
